Measured values reported in patent publication US20140294861A1 (University of Pennsylvania, published 2014).

Experiments:
[1] = molecular target: T1, human B7-H4 expressed at the cell surface (human, UniProt Q7Z7D3 25-282); assay: cell-based or functional assay
T1 sequence (looked up): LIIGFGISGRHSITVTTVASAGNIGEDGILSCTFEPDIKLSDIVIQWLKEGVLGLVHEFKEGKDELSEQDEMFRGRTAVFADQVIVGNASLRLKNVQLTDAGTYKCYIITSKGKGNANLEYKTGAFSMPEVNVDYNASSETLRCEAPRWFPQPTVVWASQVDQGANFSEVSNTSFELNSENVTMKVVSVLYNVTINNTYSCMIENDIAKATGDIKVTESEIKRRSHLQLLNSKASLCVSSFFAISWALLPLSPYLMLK

[2] = molecular target: T2, recombinant B7-H4 protein (extracellular domain, IgC+IgV, fused to 6xHIS Tag) (human, UniProt Q7Z7D3 29-259, biotinylated in the capture ELISA (site not stated)); assay: capture ELISA, immobilized scFv, biotinylated rB7-H4, SA-HRP
T2 construct: also called rB7-H4; rhB7-H4
T2 sequence: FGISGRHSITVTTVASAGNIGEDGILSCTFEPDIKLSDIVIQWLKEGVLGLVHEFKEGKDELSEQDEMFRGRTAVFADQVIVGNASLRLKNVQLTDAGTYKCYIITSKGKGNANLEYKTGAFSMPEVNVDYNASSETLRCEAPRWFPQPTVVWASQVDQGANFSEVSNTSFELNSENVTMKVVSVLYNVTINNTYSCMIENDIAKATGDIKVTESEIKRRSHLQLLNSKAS
Method: FIG. 6A is a schematic representation of protein-based (FIG. 6B) and cell-based isolation (FIG. 6C) strategies. Protein-based and cell-based isolated anti-B7-H4 scFvs were plastic-immobilized and incubated with serial dilutions of biotinylated recombinant B7-H4 (black diamonds) or irrelevant control antigen (BSA, grey triangles). Protein binding to scFv was detected with SA-HRP. Colorimetric signal was developed with TMB substrate solution, quenched with sulfuric acid and read at 450 nm on a Biotek ELISA reader.
The yeast-display scFv library derived from ovarian cancer patients was first screened by magnetic and flow sorting for anti-B7-H4 scFv using progressively decreasing concentrations of human biotinylated B7-H4 recombinant protein (rhB7-H4). Briefly, the library was enriched magnetically 3 times for scFv that bound to 1 ug/ml biotinylated rhB7-H4, and two times flow sorted with 1 ug/ml and 0.5 ug/ml biotinylated rhB7-H4. Selected yeast-display scFv were flow sorted for c-myc/B7-H4 double positive clones. […] Binding to serial dilutions of biotinylated rB7-H4 or control protein was detected using streptavidin-HRP. Colorimetric signals were developed with TMB substrate solution quenched with sulfuric acid and read at 450 nm on a […] Sequencing of scFv clones 26 and 56 was identified 2 unique clones that were then produced and Ni purified.

[3] = molecular target: T1, human B7-H4 expressed at the cell …; assay: flow cytometry on macrophages

B1: anti-B7H4 scFv clone 26 (scFv)
scFv: DIVMTQTPATLSVSPGKRATLSCRASQSVSSNYLAWYQQKPGQAPRLLIYGASRRATGIPDRFSGSGSGTDFTLTISSLQAEDVAVYYCQQYGSSPRTFGQGTKLEIKGGSSRSSSSGGGGSGGGGQVTLKESGAEVKNPGSSVKVSCKASGGTFSSYAISWLRQAPGQGLEWMGWINPNSGGSDYAQRFQGRVTMTRDTSINTVYMELSRLRSDDTAVYYCARVEKRGYYYGMDVWGQGTMVTVSSFEGSEQ
For B1, which “IFN-γ secretion of MART-1 TCR T cells in the presence of B7-H4+ TAMs” value [1] is on record?
Its value is 1.5 fold.

B2: anti-B7H4 scFv clone 3#68 (scFv)
scFv: QPGLTQPPSASGTPGQRVTISCSGSSSNIGSNYVYWYQQFPGTAPKLLIYRNNQRPSGVPDRFSGSKSGTSASLAISGLRSEDEADYYCAAWDDSLSVWVFGGGTKVTVLGGSSRSSSSGGSGSGGGGQVTLKESGAEVKNPGSSVKVSCKASGGTFSSYAISWLRQAPGQGLEWMGWINPNSGGSDYAQRFQGRVTMTRDTSINTVYMELSRLRSDDTAVYYCARVEKRGYYYGMDVWGQGTMVTVSSFEGSEQ
With B2 as the binder, how does the “IFN-γ production of MART-1 TCR T cells in the presence of B7-H4+ TAMs” value [1] read?
Its value is greater than 2 fold.

B3: anti-B7H4 scFv clone 56 (scFv)
scFv: QPVLTQSHSVSESPGKTVTITCTGSGGNIATQYVQWYQQRPGSGPTTVIYDDDQRPSGVPDRFTGSIDSSSNSASLTISGLKTEDEADYYCQSYDSTNHGVFGGGAKVTVLGGSSRSSSSGGGGSGGGGQVQLQQWGPGLVKPSETLSLTCTVSGGSISSSSYYWGWIRQPPGKGLEWIGSIYYSGSTYYNPSLKSRVTISVDTSKNQFSLKLSSVTAADTAVYYCARLSKGYSSSWAYSYYGPDAWGQGTMVTVSSFEGSEQ
notes: Human scFv from a yeast-display library, made soluble from the yeast secretion vector p416-BCCP; Soluble scFv was detected through V5 and purified on Ni; also called scFv #56; 56 scFv
Does B3 bind [2]?
Result: binds

Does B3 bind [3]?
Result: binds

B4: anti-B7H4 scFv clone 3#54 (scFv)
scFv: RPVLTQPPSAAGTPGQRVTISCSGSSSNIGSNYVYWYQQLPGMAPKLLIYTNNQRPSGVPGRFSGSKSGTSASLAISGLRSEDEADYYCAAWDDSLNGWVFGGGTELTVLGGSSRSSSSGGGGSGGGGQVQLQESGPGLVKPSETLSLTCNVSGRSVSSGFYWSWIRQRPGKGLEWVGSIYRSGLTYYNPSLKSRVTISVDTSKNQFSLKLSSVTAADTAVYYCARATPWYYYGMDVWGQGTTVTVSSFEGSEQ
How did the “IFN-γ production of MART-1 TCR T cells in the presence of B7-H4+ TAMs” value [1] turn out when B4 was run?
The value was greater than 2 fold.
